{"source": "paper doi:10.1101/2024.07.29.605612", "about": "(bioRxiv, 2024)", "binders": {"B1": {"name": "catalytically inactive mutant of RNase I (H55F/H133F) (enzyme)", "chain": "LALQAKQYGDFDRYVLALSWQTGFCQSQHDRNRNERDECRLQTETTNKADFLTVFGLWPGLPKSVAARGVDERRWMRFGCATRPIPNLPEARASRMCSSPETGLSLETAAKLSEVMPGAGGRSCLERYEYAKFGACFGFDPDAYFGTMVRLNQEIKESEAGKFLADNYGKTVSRRDFDAAFAKSWGKENVKAVKLTCQGNPAYLTEIQISIKADAINAPLSANSFLPQPHPGNCGKTFVIDKAGY"}}, "biological_target": "ribosomal protein uS14 (Escherichia coli (endogenous in K-12 …, UniProt P0AG59 1-101))", "test": "cryo-EM structure"}
{"binder": "B1", "values": [{"measurement": "binding result", "value": "binds"}]}
